Data: patent US20240400720A1 (NOVIMMUNE S A, published 2024)
Residue numbers refer to the chain shown, from its start.

T1: human CD19 (human, UniProt P15391 20-291, limits assumed)
T1 construct: also called hCD19
T1 sequence (looked up): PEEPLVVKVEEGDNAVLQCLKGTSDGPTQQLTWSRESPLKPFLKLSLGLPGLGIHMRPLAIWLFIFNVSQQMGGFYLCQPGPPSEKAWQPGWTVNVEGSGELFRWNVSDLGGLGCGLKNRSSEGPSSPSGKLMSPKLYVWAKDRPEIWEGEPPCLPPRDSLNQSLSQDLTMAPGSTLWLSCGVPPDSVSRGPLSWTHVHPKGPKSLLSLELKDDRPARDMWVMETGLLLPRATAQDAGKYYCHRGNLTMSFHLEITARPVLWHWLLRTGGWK

B1: C9 antibody (antibody, human IgG1, lambda, V domains shown)
VH: not shown
VL: NFMLTQPHSVSESPGKTVTISCTRSSGSIADKYVQWYQQRPGSSPTIVIYYDNERPSGVPDRFSGSIDSSSNSASLTISGLKTEDEADYYCQTYDESLYGWVFGGGTKLTVLG
notes: anti-CD19, IgG, lambda; also called L7B7_C9
B2: B11 antibody (antibody, human IgG1, lambda, V domains shown)
VH: not shown
VL: B1 VL with A30E, E96N
notes: anti-CD19, IgG, lambda; also called L7B7_B11
B3: A6 antibody (antibody, human IgG1, lambda, V domains shown)
VH: not shown
VL: B1 VL with A30G
notes: anti-CD19, IgG, lambda; also called L7B7_A6
B4: C6 antibody (antibody, human IgG1, lambda, V domains shown)
VH: not shown
VL: B1 VL with A30N, Y51F, E96T
notes: anti-CD19, IgG, lambda; also called L7B7 C6
B5: Ka3D3 antibody (antibody, human IgG1, kappa, V domains shown)
VH: not shown
VL: DIQMTQSPSSLSASVGDRVTITCRASQSIGKYLNWYQQKPGKAPKLLIYAASRLQSGVPSRFSGSGSGTDFTLTISSLQPEDFATYYCQQMHPRAPKTFGQGTKVEIKR
notes: IgG
B6: Ka3H8 antibody (antibody, human IgG1, kappa, V domains shown)
VH: not shown
VL: B5 VL with G30A, K31S, A95S
notes: IgG
B7: Ke8A8 antibody (antibody, human IgG1, kappa, V domains shown)
VH: not shown
VL: B5 VL with G30S, R53T
notes: IgG
B8: Ke8C7 antibody (antibody, human IgG1, kappa, V domains shown)
VH: not shown
VL: B5 VL with R24Q, S28D, G30N, K31R, R53S, M91R, A95G, K97R
notes: IgG
B9: Ke8H3 antibody (antibody, human IgG1, kappa, V domains shown)
VH: not shown
VL: B5 VL with G30N, K31R, M91K, A95G, K97R
notes: IgG
B10: Ke8B2 antibody (antibody, human IgG1, kappa, V domains shown)
VH: not shown
VL: B5 VL with M91K, K97R
notes: IgG; also called KE8-P3B2
B11: Ke84G9 antibody (antibody, human IgG1, kappa, V domains shown)
VH: not shown
VL: B5 VL with G30S, R53S, M91K, A95S, K97R
notes: IgG
B12: Ka3C5 antibody (antibody, human IgG1, kappa, V domains shown)
VH: not shown
VL: B5 VL with G30S, K31R, A50S, R53S
notes: IgG; also called KA3-P5C5
B13: Ke8H6 antibody (antibody, human IgG1, kappa, V domains shown)
VH: not shown
VL: B5 VL with G30S, A50N, R53T, M91R, A95G, K97R
notes: IgG
B14: Ke8G11 antibody (antibody, human IgG1, kappa, V domains shown)
VH: not shown
VL: B5 VL with K31R, R53S, A95G
notes: IgG
B15: Ka3A2 antibody (antibody, human IgG1, kappa, V domains shown)
VH: not shown
VL: B5 VL with G30S, A95S
notes: IgG
B16: Ke8A4 antibody (antibody, human IgG1, kappa, V domains shown)
VH: not shown
VL: B5 VL with G30A, R53S, M91F, P93K, A95S, K97Q
notes: IgG
B17: Ke81G9 antibody (antibody, human IgG1, kappa, V domains shown)
VH: not shown
VL: B5 VL with G30D, M91R, P93K, A95S, K97Q
notes: IgG
B18: Ka3A3 antibody (antibody, human IgG1, kappa, V domains shown)
VH: not shown
VL: B5 VL with G30A, K31S
notes: IgG; also called KA3-P1A3
B19: Ke81A3 antibody (antibody, human IgG1, kappa, V domains shown)
VH: not shown
VL: B5 VL with R24Q, S28D, G30N, K31R, R53S, M91R, K97R
notes: IgG
B20: Ke8B7 antibody (antibody, human IgG1, kappa, V domains shown)
VH: not shown
VL: B5 VL with R53S, A95S
notes: IgG
B21: Ke8F2 antibody (antibody, human IgG1, kappa, V domains shown)
VH: not shown
VL: B5 VL with G30D, R53S, M91K, K97R
notes: IgG
B22: Ka3B2 antibody (antibody, human IgG1, kappa, V domains shown)
VH: not shown
VL: B5 VL with S28N, A50S
notes: IgG
B23: Ke8F1 antibody (antibody, human IgG1, kappa, V domains shown)
VH: not shown
VL: B5 VL with G30A, K31S, L33V, R53G, M91F, P93K, A95R, K97Q
notes: IgG
B24: Ka3G2 antibody (antibody, human IgG1, kappa, V domains shown)
VH: not shown
VL: B5 VL with G30D, A95G
notes: IgG; also called KA3-P5G2
B25: Ka3H3 antibody (antibody, human IgG1, kappa, V domains shown)
VH: not shown
VL: B5 VL with R24Q, S28D, G30A, R53A, A95S
notes: IgG
B26: Ke8C4 antibody (antibody, human IgG1, kappa, V domains shown)
VH: not shown
VL: B5 VL with G30S, K31R, R53N, A95G
notes: IgG
B27: Ke86G9 antibody (antibody, human IgG1, kappa, V domains shown)
VH: not shown
VL: B5 VL with G30S, A50N, R53N, M91R, A95G, K97T
notes: IgG
B28: Ke8H5 antibody (antibody, human IgG1, kappa, V domains shown)
VH: not shown
VL: B5 VL with G30A, K31R, R53S, M91F, P93K, K97Q
notes: IgG; also called KE8-P6H5
B29: Ke8G2 antibody (antibody, human IgG1, kappa, V domains shown)
VH: not shown
VL: B5 VL with K31R, S76N, M91K, K97R
notes: IgG
B30: Ke8G6 antibody (antibody, human IgG1, kappa, V domains shown)
VH: not shown
VL: B5 VL with K31R, R53S
notes: IgG
B31: Ke8E8 antibody (antibody, human IgG1, kappa, V domains shown)
VH: not shown
VL: B5 VL with R24Q, S28D, G30N, R53S, M91K, A95G, K97R
notes: IgG
B32: Kc4C3 antibody (antibody, human IgG1, lambda, V domains shown)
VH: not shown
VL: QSALTQPASVSGSPGQSITISCTGTSSDVRAANYVSWYQQHPGKAPKLMIYKNSTRPSGVSNRFSGSKSGNTASLTISGLQAEDEADYYCSSYDWWFRPKVFGGGTKLTVLG
notes: IgG, lambda
B33: Kc4B1 antibody (antibody, human IgG1, lambda, V domains shown)
VH: not shown
VL: B32 VL with A32N, K52E, N53S, T55A
notes: IgG, lambda
B34: Kc4G11 antibody (antibody, human IgG1, lambda, V domains shown)
VH: not shown
VL: B32 VL with R30G, A31K, N53D, T55D
notes: IgG, lambda
B35: Kc4E2 antibody (antibody, human IgG1, lambda, V domains shown)
VH: not shown
VL: B32 VL with R30Y, A31Y, A32N, N33K, K52E, N53S, T55K
notes: IgG, lambda; also called KC4-P2E2
B36: Kc4F4 antibody (antibody, human IgG1, lambda, V domains shown)
VH: not shown
VL: B32 VL with A31R, K52Q, N53D, T55S
notes: IgG, lambda
B37: Kc4C11 antibody (antibody, human IgG1, lambda, V domains shown)
VH: not shown
VL: B32 VL with A31G, A32N, K52E, T55K
notes: IgG, lambda
B38: Kc4E10 antibody (antibody, human IgG1, lambda, V domains shown)
VH: not shown
VL: B32 VL with R30N, A31S, N53S, T55S
notes: IgG, lambda
B39: Kc4G9 antibody (antibody, human IgG1, lambda, V domains shown)
VH: not shown
VL: B32 VL with R30E, A31R, A32K
notes: IgG, lambda
B40: Kc4A4 antibody (antibody, human IgG1, lambda, V domains shown)
VH: not shown
VL: B32 VL with G24R, R30N, A31N, A32T, N53T, T55G
notes: IgG, lambda
B41: Kc4A1 antibody (antibody, human IgG1, lambda, V domains shown)
VH: not shown
VL: B32 VL with R30S, A32R, K52E, N53S, T55K
notes: IgG, lambda
B42: 5A3M4 (antibody, human IgG1, kappa, V domains shown)
VH: not shown
VL: DIQMTQSPSSLSASVGDRVTITCQASQDINKYLNWYQQKPGKAPKLLIYGASRLETGVPSRFSGSGSGTDFTFTISSLQPEDIATYYCQQKHPRNPRTFGQGTKVEIKR
notes: the list MOLECULES holds only the monovalent form; also called 5A3-M4 antibody

target: T1, human CD19; test: second round of affinity maturation (from D11)

| binding result | Binder |
| --- | --- |
| binds | B1 |
| binds | B2 |
| binds | B3 |
| binds | B4 |

target: T2, human CD47 (human, UniProt Q08722 19-141, limits assumed); test: affinity maturation by phage display on hCD47; positive in hCD47-SIRPα inhibition screen, reformatted as IgG
T2 construct: also called hCD47

| binding result | Binder |
| --- | --- |
| binds | B5 |
| binds | B6 |
| binds | B7 |
| binds | B8 |
| binds | B9 |
| binds | B10 |
| binds | B11 |
| binds | B12 |
| binds | B13 |
| binds | B14 |
| binds | B15 |
| binds | B16 |
| binds | B17 |
| binds | B18 |
| binds | B19 |
| binds | B20 |
| binds | B21 |
| binds | B22 |
| binds | B23 |

| binding result | Binder |
| --- | --- |
| binds | B24 |
| binds | B25 |
| binds | B26 |
| binds | B27 |
| binds | B28 |
| binds | B29 |
| binds | B30 |
| binds | B31 |
| binds | B32 |
| binds | B33 |
| binds | B34 |
| binds | B35 |
| binds | B36 |
| binds | B37 |
| binds | B38 |
| binds | B39 |
| binds | B40 |
| binds | B41 |

target: T3, human CD47 on the cell surface (human, UniProt Q08722 19-323); test: CD47-SIRPα competitive binding assay: His-tagged soluble human SIRPα (200 ng/ml) on hCD47-transfected CHO cells, antibody 3.3 pM-330 nM; blocked ligand SIRPα
T3 construct: whole, on cells; also called huCD47; native CD47

| binding result | Binder |
| --- | --- |
| binds | B5 |
| binds | B6 |
| binds | B7 |
| binds | B8 |
| binds | B9 |
| binds | B10 |
| binds | B11 |
| binds | B12 |
| binds | B13 |
| binds | B14 |
| binds | B15 |
| binds | B16 |
| binds | B17 |
| binds | B18 |
| binds | B19 |
| binds | B20 |
| binds | B22 |
| binds | B23 |
| binds | B24 |

| binding result | Binder |
| --- | --- |
| binds | B25 |
| binds | B26 |
| binds | B27 |
| binds | B28 |
| binds | B42 |
| binds | B29 |
| binds | B30 |
| binds | B31 |
| binds | B32 |
| binds | B33 |
| binds | B34 |
| binds | B35 |
| binds | B36 |
| binds | B37 |
| binds | B38 |
| binds | B39 |
| binds | B40 |
| binds | B41 |
